These results are taken from patent US20230256092A1, “COMBINED USE OF ANTI-CCR8 ANTIBODY AND CHEMOTHERAPEUTIC AGENT” (Shionogi & Co., Ltd., priority 2020, published 2023).

B1: h10A11 (IGKV4-1/IGHV3-73 T31A) (antibody, name in Kabat numbering, V domains shown)
VH: EVQLVESGGGLVQPGGSLKLSCAASGFAFNAYALYWVRQASGKGLEWVGRIRSKSNNYATYYADSVKDRFTISRDDSKNTAYLQMNSLKTEDTAVYYCTRARFYYSDYGYAMDYWGQGTLVTVSS
VL: DIVMTQSPDSLAVSLGERATINCRSSKSLLHSNGNTYLYWYQQKPGQPPKLLIYRMSNLASGVPDRFSGSGSGTDFTLTISSLQAEDVAVYYCMQHLEYPLTFGQGTKLEIKR
B2: h10A11 (IGKV4-1/IGHV3-73 I51L) (antibody, name in Kabat numbering, V domains shown)
VH: EVQLVESGGGLVQPGGSLKLSCAASGFAFNTYALYWVRQASGKGLEWVGRLRSKSNNYATYYADSVKDRFTISRDDSKNTAYLQMNSLKTEDTAVYYCTRARFYYSDYGYAMDYWGQGTLVTVSS
VL: DIVMTQSPDSLAVSLGERATINCRSSKSLLHSNGNTYLYWYQQKPGQPPKLLIYRMSNLASGVPDRFSGSGSGTDFTLTISSLQAEDVAVYYCMQHLEYPLTFGQGTKLEIKR
B3: h10A11 (IGKV4-1/IGHV3-73 R52K) (antibody, name in Kabat numbering, V domains shown)
VH: EVQLVESGGGLVQPGGSLKLSCAASGFAFNTYALYWVRQASGKGLEWVGRIKSKSNNYATYYADSVKDRFTISRDDSKNTAYLQMNSLKTEDTAVYYCTRARFYYSDYGYAMDYWGQGTLVTVSS
VL: DIVMTQSPDSLAVSLGERATINCRSSKSLLHSNGNTYLYWYQQKPGQPPKLLIYRMSNLASGVPDRFSGSGSGTDFTLTISSLQAEDVAVYYCMQHLEYPLTFGQGTKLEIKR
B4: h10A11 (IGKV4-1/IGHV3-73 A56V) (antibody, name in Kabat numbering, V domains shown)
VH: EVQLVESGGGLVQPGGSLKLSCAASGFAFNTYALYWVRQASGKGLEWVGRIRSKSNNYVTYYADSVKDRFTISRDDSKNTAYLQMNSLKTEDTAVYYCTRARFYYSDYGYAMDYWGQGTLVTVSS
VL: DIVMTQSPDSLAVSLGERATINCRSSKSLLHSNGNTYLYWYQQKPGQPPKLLIYRMSNLASGVPDRFSGSGSGTDFTLTISSLQAEDVAVYYCMQHLEYPLTFGQGTKLEIKR
B5: h10A11 (IGKV4-1/IGHV3-73 Y58F) (antibody, name in Kabat numbering, V domains shown)
VH: EVQLVESGGGLVQPGGSLKLSCAASGFAFNTYALYWVRQASGKGLEWVGRIRSKSNNYATFYADSVKDRFTISRDDSKNTAYLQMNSLKTEDTAVYYCTRARFYYSDYGYAMDYWGQGTLVTVSS
VL: DIVMTQSPDSLAVSLGERATINCRSSKSLLHSNGNTYLYWYQQKPGQPPKLLIYRMSNLASGVPDRFSGSGSGTDFTLTISSLQAEDVAVYYCMQHLEYPLTFGQGTKLEIKR
B6: h10A11 (IGKV4-1/IGHV3-73 S52cT) (antibody, name in Kabat numbering, V domains shown)
VH: EVQLVESGGGLVQPGGSLKLSCAASGFAFNTYALYWVRQASGKGLEWVGRIRSKTNNYATYYADSVKDRFTISRDDSKNTAYLQMNSLKTEDTAVYYCTRARFYYSDYGYAMDYWGQGTLVTVSS
VL: DIVMTQSPDSLAVSLGERATINCRSSKSLLHSNGNTYLYWYQQKPGQPPKLLIYRMSNLASGVPDRFSGSGSGTDFTLTISSLQAEDVAVYYCMQHLEYPLTFGQGTKLEIKR
B7: h10A11 (IGKV4-1/IGHV3-73 Y32F) (antibody, name in Kabat numbering, V domains shown)
VH: EVQLVESGGGLVQPGGSLKLSCAASGFAFNTFALYWVRQASGKGLEWVGRIRSKSNNYATYYADSVKDRFTISRDDSKNTAYLQMNSLKTEDTAVYYCTRARFYYSDYGYAMDYWGQGTLVTVSS
VL: DIVMTQSPDSLAVSLGERATINCRSSKSLLHSNGNTYLYWYQQKPGQPPKLLIYRMSNLASGVPDRFSGSGSGTDFTLTISSLQAEDVAVYYCMQHLEYPLTFGQGTKLEIKR
B8: h10A11 (IGKV4-1/IGHV3-73 N53Q) (antibody, name in Kabat numbering, V domains shown)
VH: EVQLVESGGGLVQPGGSLKLSCAASGFAFNTYALYWVRQASGKGLEWVGRIRSKSQNYATYYADSVKDRFTISRDDSKNTAYLQMNSLKTEDTAVYYCTRARFYYSDYGYAMDYWGQGTLVTVSS
VL: DIVMTQSPDSLAVSLGERATINCRSSKSLLHSNGNTYLYWYQQKPGQPPKLLIYRMSNLASGVPDRFSGSGSGTDFTLTISSLQAEDVAVYYCMQHLEYPLTFGQGTKLEIKR
B9: h10A11 (IGKV4-1/IGHV3-73 A60V) (antibody, name in Kabat numbering, V domains shown)
VH: EVQLVESGGGLVQPGGSLKLSCAASGFAFNTYALYWVRQASGKGLEWVGRIRSKSNNYATYYVDSVKDRFTISRDDSKNTAYLQMNSLKTEDTAVYYCTRARFYYSDYGYAMDYWGQGTLVTVSS
VL: DIVMTQSPDSLAVSLGERATINCRSSKSLLHSNGNTYLYWYQQKPGQPPKLLIYRMSNLASGVPDRFSGSGSGTDFTLTISSLQAEDVAVYYCMQHLEYPLTFGQGTKLEIKR
B10: h10A11 (IGKV4-1/IGHV3-73 Y35F) (antibody, name in Kabat numbering, V domains shown)
VH: EVQLVESGGGLVQPGGSLKLSCAASGFAFNTYALFWVRQASGKGLEWVGRIRSKSNNYATYYADSVKDRFTISRDDSKNTAYLQMNSLKTEDTAVYYCTRARFYYSDYGYAMDYWGQGTLVTVSS
VL: DIVMTQSPDSLAVSLGERATINCRSSKSLLHSNGNTYLYWYQQKPGQPPKLLIYRMSNLASGVPDRFSGSGSGTDFTLTISSLQAEDVAVYYCMQHLEYPLTFGQGTKLEIKR
B11: h10A11 (IGKV4-1/IGHV3-73 A33V) (antibody, name in Kabat numbering, V domains shown)
VH: EVQLVESGGGLVQPGGSLKLSCAASGFAFNTYVLYWVRQASGKGLEWVGRIRSKSNNYATYYADSVKDRFTISRDDSKNTAYLQMNSLKTEDTAVYYCTRARFYYSDYGYAMDYWGQGTLVTVSS
VL: DIVMTQSPDSLAVSLGERATINCRSSKSLLHSNGNTYLYWYQQKPGQPPKLLIYRMSNLASGVPDRFSGSGSGTDFTLTISSLQAEDVAVYYCMQHLEYPLTFGQGTKLEIKR
B12: h10A11 (IGKV4-1/IGHV3-73 S52aT) (antibody, name in Kabat numbering, V domains shown)
VH: EVQLVESGGGLVQPGGSLKLSCAASGFAFNTYALYWVRQASGKGLEWVGRIRTKSNNYATYYADSVKDRFTISRDDSKNTAYLQMNSLKTEDTAVYYCTRARFYYSDYGYAMDYWGQGTLVTVSS
VL: DIVMTQSPDSLAVSLGERATINCRSSKSLLHSNGNTYLYWYQQKPGQPPKLLIYRMSNLASGVPDRFSGSGSGTDFTLTISSLQAEDVAVYYCMQHLEYPLTFGQGTKLEIKR
B13: h10A11 (IGKV4-1/IGHV3-73 L34I) (antibody, name in Kabat numbering, V domains shown)
VH: EVQLVESGGGLVQPGGSLKLSCAASGFAFNTYAIYWVRQASGKGLEWVGRIRSKSNNYATYYADSVKDRFTISRDDSKNTAYLQMNSLKTEDTAVYYCTRARFYYSDYGYAMDYWGQGTLVTVSS
VL: DIVMTQSPDSLAVSLGERATINCRSSKSLLHSNGNTYLYWYQQKPGQPPKLLIYRMSNLASGVPDRFSGSGSGTDFTLTISSLQAEDVAVYYCMQHLEYPLTFGQGTKLEIKR
B14: h10A11 (IGKV4-1/IGHV3-73 Y55F) (antibody, name in Kabat numbering, V domains shown)
VH: EVQLVESGGGLVQPGGSLKLSCAASGFAFNTYALYWVRQASGKGLEWVGRIRSKSNNFATYYADSVKDRFTISRDDSKNTAYLQMNSLKTEDTAVYYCTRARFYYSDYGYAMDYWGQGTLVTVSS
VL: DIVMTQSPDSLAVSLGERATINCRSSKSLLHSNGNTYLYWYQQKPGQPPKLLIYRMSNLASGVPDRFSGSGSGTDFTLTISSLQAEDVAVYYCMQHLEYPLTFGQGTKLEIKR
B15: h10A11 (IGKV4-1/IGHV3-73 S62T) (antibody, name in Kabat numbering, V domains shown)
VH: EVQLVESGGGLVQPGGSLKLSCAASGFAFNTYALYWVRQASGKGLEWVGRIRSKSNNYATYYADTVKDRFTISRDDSKNTAYLQMNSLKTEDTAVYYCTRARFYYSDYGYAMDYWGQGTLVTVSS
VL: DIVMTQSPDSLAVSLGERATINCRSSKSLLHSNGNTYLYWYQQKPGQPPKLLIYRMSNLASGVPDRFSGSGSGTDFTLTISSLQAEDVAVYYCMQHLEYPLTFGQGTKLEIKR
B16: h10A11 (IGKV4-1/IGHV3-73 R50K) (antibody, name in Kabat numbering, V domains shown)
VH: EVQLVESGGGLVQPGGSLKLSCAASGFAFNTYALYWVRQASGKGLEWVGKIRSKSNNYATYYADSVKDRFTISRDDSKNTAYLQMNSLKTEDTAVYYCTRARFYYSDYGYAMDYWGQGTLVTVSS
VL: DIVMTQSPDSLAVSLGERATINCRSSKSLLHSNGNTYLYWYQQKPGQPPKLLIYRMSNLASGVPDRFSGSGSGTDFTLTISSLQAEDVAVYYCMQHLEYPLTFGQGTKLEIKR
B17: h10A11 (IGKV4-1/IGHV3-73 D61E) (antibody, name in Kabat numbering, V domains shown)
VH: EVQLVESGGGLVQPGGSLKLSCAASGFAFNTYALYWVRQASGKGLEWVGRIRSKSNNYATYYAESVKDRFTISRDDSKNTAYLQMNSLKTEDTAVYYCTRARFYYSDYGYAMDYWGQGTLVTVSS
VL: DIVMTQSPDSLAVSLGERATINCRSSKSLLHSNGNTYLYWYQQKPGQPPKLLIYRMSNLASGVPDRFSGSGSGTDFTLTISSLQAEDVAVYYCMQHLEYPLTFGQGTKLEIKR
B18: h10A11 (IGKV4-1/IGHV3-73 K52bR) (antibody, name in Kabat numbering, V domains shown)
VH: EVQLVESGGGLVQPGGSLKLSCAASGFAFNTYALYWVRQASGKGLEWVGRIRSRSNNYATYYADSVKDRFTISRDDSKNTAYLQMNSLKTEDTAVYYCTRARFYYSDYGYAMDYWGQGTLVTVSS
VL: DIVMTQSPDSLAVSLGERATINCRSSKSLLHSNGNTYLYWYQQKPGQPPKLLIYRMSNLASGVPDRFSGSGSGTDFTLTISSLQAEDVAVYYCMQHLEYPLTFGQGTKLEIKR
B19: h10A11 (IGKV4-1/IGHV3-73 T57S) (antibody, name in Kabat numbering, V domains shown)
VH: EVQLVESGGGLVQPGGSLKLSCAASGFAFNTYALYWVRQASGKGLEWVGRIRSKSNNYASYYADSVKDRFTISRDDSKNTAYLQMNSLKTEDTAVYYCTRARFYYSDYGYAMDYWGQGTLVTVSS
VL: DIVMTQSPDSLAVSLGERATINCRSSKSLLHSNGNTYLYWYQQKPGQPPKLLIYRMSNLASGVPDRFSGSGSGTDFTLTISSLQAEDVAVYYCMQHLEYPLTFGQGTKLEIKR
B20: h10A11 (IGKV4-1/IGHV3-73 Y59F) (antibody, name in Kabat numbering, V domains shown)
VH: EVQLVESGGGLVQPGGSLKLSCAASGFAFNTYALYWVRQASGKGLEWVGRIRSKSNNYATYFADSVKDRFTISRDDSKNTAYLQMNSLKTEDTAVYYCTRARFYYSDYGYAMDYWGQGTLVTVSS
VL: DIVMTQSPDSLAVSLGERATINCRSSKSLLHSNGNTYLYWYQQKPGQPPKLLIYRMSNLASGVPDRFSGSGSGTDFTLTISSLQAEDVAVYYCMQHLEYPLTFGQGTKLEIKR

The assay concerns the target human CCR8 (human) (UniProt P51685). The assay is described as follows: cell-based or functional assay.
B1: the IC50 ratio (WT IC50/mutant IC50) is 0.17. For B2, the IC50 ratio (WT IC50/mutant IC50) was found to be 0.22. As for B3, the IC50 (n.d. = IC50 of the mutant is 10 nM or more) was greater than 10 nM.

In the case of B4, the IC50 ratio (WT IC50/mutant IC50) was 0.55. Still for that read-out and setting: to B5 belongs 0.5.

With B6, the IC50 ratio (WT IC50/mutant IC50) is 0.53. Still for that read-out and setting: the result for B7 reads 0.44. With B8, the IC50 ratio (WT IC50/mutant IC50) worked out at 0.03. On the same count and under the same terms, to B9 belongs 0.67.

As to B10, the IC50 (n.d. = IC50 of the mutant is 10 nM or more) was greater than 10 nM. B11 gave an IC50 (n.d. = IC50 of the mutant is 10 nM or more) greater than 10 nM. As for B12, the IC50 ratio (WT IC50/mutant IC50) was determined as 0.22.

With B13, the IC50 ratio (WT IC50/mutant IC50) amounted to 0.43. For the molecule B14, the IC50 ratio (WT IC50/mutant IC50) turned out to be 0.47. Same read-out and setting: the result for B15 reads 1.6; that for B16, 0.12; that for B17, 0.25.

As to B18, the IC50 ratio (WT IC50/mutant IC50) is 0.47. On the same count and under the same terms, the result for B19 reads 0.49. Still for that read-out and setting: to B20 belongs 0.03.
